In paper doi:10.1101/659029:

B1: substrate-4 (RNA-4/Cy5 DNA) (mixed)
DNA 1: GGCACCAACACAAAACACATCTACACUCAACAAUCACUUU
DNA 2: GTAGATGTGTTTTGTGTTGGTGCC
modifications: strand 1 RNA with DNA at nt 17-24 (duplex end proximal to overhang)
B2: substrate-5 (RNA-5/Cy5 DNA) (mixed)
RNA: GGCACCAACACAAAACACAUCUACACUCAACAAUCACUUU
DNA: GTAGATGTGTTTTGTGTTGGTGCC
modifications: strand 1 RNA with DNA at nt 9-16 (middle of duplex)
B3: substrate-1 (RNA-1/Cy5 DNA) (DNA:RNA)
RNA: GGCACCAACACAAAACACAUCUACACUCAACAAU
DNA: GTAGATGTGTTTTGTGTTGGTGCC

Each binder was assayed against Prp43p;Ntr1p (1-120) (Saccharomyces cerevisiae (budding …, UniProt P53131;Q06411 1-767;1-120, |)) (assay: EMSA).
Sequence of Prp43p;Ntr1p (1-120) (Saccharomyces cerevisiae (P53131 whole entry, chain 1 of 2): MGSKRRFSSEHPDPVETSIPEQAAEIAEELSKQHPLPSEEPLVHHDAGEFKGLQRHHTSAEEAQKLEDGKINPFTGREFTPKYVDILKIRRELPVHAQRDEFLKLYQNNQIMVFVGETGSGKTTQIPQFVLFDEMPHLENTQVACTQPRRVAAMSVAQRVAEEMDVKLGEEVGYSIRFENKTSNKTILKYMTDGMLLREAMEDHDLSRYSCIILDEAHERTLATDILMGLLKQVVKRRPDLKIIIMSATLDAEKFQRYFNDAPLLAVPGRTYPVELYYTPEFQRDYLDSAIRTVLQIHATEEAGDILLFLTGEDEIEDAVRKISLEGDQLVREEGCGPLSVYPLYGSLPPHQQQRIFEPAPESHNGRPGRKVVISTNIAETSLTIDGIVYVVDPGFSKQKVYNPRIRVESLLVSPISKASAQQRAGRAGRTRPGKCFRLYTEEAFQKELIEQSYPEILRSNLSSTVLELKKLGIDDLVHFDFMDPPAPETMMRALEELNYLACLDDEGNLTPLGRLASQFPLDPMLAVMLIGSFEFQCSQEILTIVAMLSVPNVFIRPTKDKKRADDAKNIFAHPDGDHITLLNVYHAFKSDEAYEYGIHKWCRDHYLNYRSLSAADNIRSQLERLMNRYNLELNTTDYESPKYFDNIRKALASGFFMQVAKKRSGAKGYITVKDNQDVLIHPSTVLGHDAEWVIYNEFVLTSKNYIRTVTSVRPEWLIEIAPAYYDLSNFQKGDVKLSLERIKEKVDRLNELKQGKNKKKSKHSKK
Sequence of Prp43p;Ntr1p (1-120) (Saccharomyces cerevisiae (Q06411 1-120, chain 2 of 2): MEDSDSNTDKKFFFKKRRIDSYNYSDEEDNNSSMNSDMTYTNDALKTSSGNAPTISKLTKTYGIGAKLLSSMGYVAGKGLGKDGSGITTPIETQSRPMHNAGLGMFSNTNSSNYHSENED

Binding result, binds:
B1
B2
B3
